Target: human ACE2 protein (Angiotensin-Converting Enzyme 2) (human, UniProt Q9BYF1 18-740)
Test: phage-displayed construct probed with ACE2

Sequence of human ACE2 protein (Angiotensin-Converting Enzyme 2) (Q9BYF1 18-740 limits assumed): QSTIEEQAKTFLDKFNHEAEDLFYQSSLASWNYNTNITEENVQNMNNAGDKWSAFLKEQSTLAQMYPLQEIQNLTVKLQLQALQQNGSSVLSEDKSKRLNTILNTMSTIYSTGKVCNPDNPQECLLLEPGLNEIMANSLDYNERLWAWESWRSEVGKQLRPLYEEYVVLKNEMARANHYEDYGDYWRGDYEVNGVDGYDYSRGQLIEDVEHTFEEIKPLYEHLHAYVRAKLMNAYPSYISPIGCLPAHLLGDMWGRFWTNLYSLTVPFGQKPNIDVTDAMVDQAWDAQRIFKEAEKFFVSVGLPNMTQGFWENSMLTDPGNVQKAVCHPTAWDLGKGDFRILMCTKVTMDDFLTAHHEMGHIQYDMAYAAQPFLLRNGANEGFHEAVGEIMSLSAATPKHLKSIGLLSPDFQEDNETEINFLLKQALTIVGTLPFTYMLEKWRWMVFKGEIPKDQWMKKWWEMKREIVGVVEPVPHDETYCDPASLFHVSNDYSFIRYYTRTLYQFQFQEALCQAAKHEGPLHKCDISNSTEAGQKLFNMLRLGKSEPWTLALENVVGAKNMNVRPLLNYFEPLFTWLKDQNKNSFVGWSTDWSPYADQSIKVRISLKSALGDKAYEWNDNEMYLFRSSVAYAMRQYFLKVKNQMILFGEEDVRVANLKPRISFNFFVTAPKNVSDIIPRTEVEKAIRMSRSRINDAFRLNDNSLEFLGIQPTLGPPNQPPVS

B1: initial SARS CoV RBM construct (residues S432-T486) displayed on fth-1 phage (other)
chain: STGNYNYKYRYLRHGKLRPFERDISNVPFSPDGKPCTPPALNCYWPLNDYGFYTT
- binding result: no binding

Reference: patent US20180334480A1 (RAMOT AT TEL AVIV UNIVERSITY, published 2018)
